Results: the supplement of paper PMC9942255
Where “and” joins values, the source holds several entries; their conditions need not be identical. Identical values can stand only once.

Test system: Bacillus subtilis DB104 (SP-AmyQ fusion secretion)
Test: AmyQ secretion efficiency, weighted average sort bin (1 = best secretion, 10 = worst) (bin number (weighted average, 1-10)); higher = lower secretion efficiency
Procedure, shortened: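 The secretion score gives the average bin number weighted by read frequency and normalised to beads per bin, with low-abundance sequences excluded. Bins were 10 equally populated green/red fluorescence ratio fractions of occupied ~65 nL alginate beads, sorted by large-particle flow cytometry. The beads held fluorescein-starch and about 0.3 cells each of an amyE-integrated B. subtilis DB104 library fusing designed signal peptides to mature AmyQ, and they were grown about 13 h at room temperature and stained with nile red before sorting and Illumina sequencing.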

Row | Sequence | AmyQ secretion efficiency
1 | MLKKKWMTRGLAGCLAAGGFSYNAFATEN | 6.77
2 | MTMLRKIIGWILLLCIIPSKQQSSIASGKEV | 6.84
3 | MKFVKRRIRKKRRRLMLSVTSLFALQPSAKAAEH | 6.62
4 | MKSKGSIMACLILFSFTITTFINTETASAFSN | 4.22
5 | MFNRLFRVCFLAALIMAFTLPNSAYAQKP | 2.14
6 | MKWMTNCSICCAAVLLAGGAAQAEAV | 3.49
7 | MRKKKRRVLLLLVTGLFMSLFAVTATASAQTG | 1.06
8 | MKRLFMKASLVLFAVVFVFAVKGAPAKAADD | 3.6
9 | MKKRKRRNFKRFIAAFLVLALMISLVPDVLAKST | 3.69
10 | MKKWMITIAMSTYTYYTLFVFISPLKSHKT | 5.78
11 | MKRLFMKASLVLFAVVFVFAVKGAPLKAETH | 2.67
12 | MFNRLFRVCFLAALIMAFVFTLPNSVYAQKP | 2.33
13 | MRNLTKTSLLLAGLCTAAQMVFVTHASCEES | 4.5
14 | MPYLKRVLLLLVTGLFMSLFAVTATASLQTG | 1.81
15 | MKKAAAVLLSLGLVFGFSYGAGHVMEAKTK | 5.11
16 | MPYLKRVRRRRRRGLFMSLFAVTATASAQTG | 6.28
17 | MAIIIAIIAAVIVIAALITFNVSNASPG | 7.09
18 | MKLWMRKTLVVLFTIVTFGLVSPPAALMTDKP | 2.85
19 | MKKRMMMIMFFGPIILAFILFAGAIAIPS | 7.34
20 | MRKRLFRVCFLAALIMAFTLPNSVYAQKP | 2.73
21 | MGLGKKLSVAVAASFMSLSISLPVQAAEG | 1.35
22 | MRSYIKVLTMCFLGLILFVPTKDEPALADNS | 2.48
23 | MKSKGSIMACLILFSFTITIILVTLIIVATFINTETISAFSN | 6.84
24 | MRKKTKNRLISSVLSTVVISSLLFPGAAGASSK | 1.59 and 2.27 and 1.9
25 | MKKRKCLLFLTTIALILSLSTNAFAKNT | 1.8
26 | MFKKHTISLLIIFLLASAVLAKPIEAHDD | 3.1

Row | Sequence | AmyQ secretion efficiency
27 | MIAYFGKCRKTRTIMFLGVLFGMQQANHG | 3.14
28 | MKSKVKIAGVLTVAAAAMTAKMYATAKGN | 7.17
29 | MLKGIIRFLLVSFVLFFALSTGITGVQAAPA | 2.22
30 | MGLGKKLSVAVAASFMSLSISLPGVQGAEG | 1.9
31 | MKSKWMSGLLLVAVGFSFTQVMVHIGET | 5.32
32 | MPYLKRVLLLLVTGLFMSLFAVTATWSAQTG | 6.1
33 | MKRLLSTLLIGIMLLTFAPSTFAKQD | 1.72
34 | MNLRKILLSSALSLGMLVSAAPLLATSS | 4.04
35 | MKTKTLFIFSAILTLSIFAPNEGFAQTA | 3.32
36 | MTMLRKIIGWILLLCIIPLFAFTVIASGASK | 7.69
37 | MKKMLGKLLITAGILVFFAVVVKDVFAAGL | 7.15
38 | MKRIRIPMTLALGAALTIAPLSFASAKKR | 3.26
39 | MKNMSCKLVVSVTLFFSFLTIGPLAHQQNS | 5.78
40 | MKLAKRVSALTPSTTLAIATAKAKEL | 7.06
41 | MKKTIMSFVAVAALSTTAFGAHASGKEI | 2.91
42 | MKLKSKLLLSCLALSTVFVATTIANEPTH | 7.21
43 | MKRLFMKAKLVLFAVVFVFAVKGAPAKAETH | 2.67
44 | MKLAKRVSALTPSTTLAITAKCKEL | 7.76
45 | MKKQIITATTAVVLGSTLFAGATSAQSI | 1.92
46 | MPYLKRVLLLLVTGLFMSLFAVTATASVQTG | 1.13
47 | MKRYKQRLRVWMVFLMNWVTPDRKTAAAAVY | 6.82
48 | MKRIRIPMTLALGAALTIAPLSFQSAEEN | 6.97
49 | MFNRLFRVCFLAALIMAFTLPNSHYAQKP | 6.53
50 | MKKWIYIMSFMIVVLVLSIAGIGGFSVHAASS | 4
51 | MKLRKVLTGSVLSLGLLVSASPAFAEEE | 2.06
52 | MLKRTSFVSSLFISSAVLLSILRRKRRRAHAQSA | 7.6
